experiment: soluble fraction after stress (log2 fold change); higher = more stays soluble; pooled small domains, quantitative proteomics; conditions: stress: 75 degC
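Note: 20 min heating vs room temperature control held 20 min.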

| Sequence | soluble fraction (log2) |
| --- | --- |
| HMQKAEQIGSLLREKRKSMGLTQDELAQQVEVRRQTLADLELGKNVGSHLLIKVMEHLGVGFDLL | -0.738 |
| HMQKEIKVPDVANMALSEAVEKLQNEGFKVADEQKEVSSDEIEEGKVVKTSPVAGTKKTKGSEITIYISSG | 0.26 |
| HMQKFLEATGENRDAAVENALEQLGLERDDVSVEVLEIGKKGFLGIGATPARVRVTYEAPDI | 0.197 |
| HMQKKEVTVPEVRSKSLKEAAQILSEQNLKYETEPVNVENPDMVVIDQFPKPGGKISEQSVIILYLR | 0.697 |
| HMQKLNIEEQIVYDIIFKNKELSANEIQIKSGIKTSILNALLINLEIKQYIKLKFGNFYEIK | 0.181 |
| HMQKMPEMQILPNGKVKLPDFSGINMRKAAELLQYGKLRLQPYGSGTAYQQKPAAGTEVDEGTVVEIWF | -0.83 |
| HMQKNFYQILGVDSKASPATINAAYERAKSRVIQSGLEDPDTMALLRDAWETLADPGDRAAYDESLAT | 0.0744 |
| HMQKPELLAPAGSLEKAKTAFKYGADAVYMGTSNLSLRSRVTVDDDELIKTIEYAHSINKKVYAALNIYAR | 0.249 |
| HMQKPWFYESSGQRKGGFSEQEMVGLITDGEITHGAIVWRNGLSDWTKLEQTELAAHLDKTA | -0.11 |
| HMQKRDQKKRANMLDSLKVGTRIVTIGGIFGEIAKIKDDRIRIKVAEDVEIWIRRAAVGTVIT | -1.94 |
| HMQKTPFEIMTIYKDQILEMLGKDLTATEISIVLKKKGEKVHPREIRKFQLQHYEEVQDMRKKWRE | -1.17 |
| HMQKWILVNKQGRLSGILDHRAFNTRESATAWFQRTSDISGGTIKIDDYYYVLKNEEYKLLKE | -3.09 |
| HMQKYEDIINVTRERLQNKFYSQTVIPTDDDIYIWLDKVAILEEIKLSKEDRQMLFNLLKKEAT | -1.35 |
| HMQLGQMIVKLRKEQGLTQETFAKKFNVTRQTVSNWENEKSYPDLHTLVKISDEFHLSLDILLK | -3.14 |
| HMQLGSILAYKFPQFGGIDGAWQVRDDSNGTGPYIAFWDAKTIGRGMPTEDELTAWAQEYEA | -0.206 |
| HMQLPTPEDLKKRRNELGLTQSDLAKRAGVSQPLIARIESGDVDPRLSTVRKILDAFEEVEKEQQ | 0.0518 |
| HMQLSASQQQILNHAAVNTDGKLVWFPETLKGGARKKVLDSLFSRALITTDGTHWFVAAEGYEALGIP | -1.06 |
| HMQLTDLSALEAIIKEVLAANPKSVEDYKSGKEKAFGSLVGQAMKATKGKANPETVNSLLRKNLN | 0.729 |
| HMQLTDSDFTRLYTYVKNSYGIDLSKKKQLISSRLTNMLIQQGYRDFTQYTDEIISGKNPEMVSAMLNRLT | -1.33 |
| HMQLTPAQHAILAKAIHSSDGKIEWFPDNVKGGARKKVLEGMFNRALITPDGEGWRIAAEGYDALGMPRP | -0.097 |
| HMQLVGSSAAVLIPAPAGGLGKIRLEFRGQTIDLIAKATDGGALIEGGAVTIVDVRDGQADVSV | -0.939 |
| HMQMMDATLKIPPSMGKLRGTLYELNSVTSEDVDENGQLALHVRLSSVDWQRLKKRFDSNLDELIVQKN | -0.219 |
| HMQMPLTMATMGEVNKIVKVGGNEETRRFLANLGFVAGAEVVVLSKIGGNVIVNVKDSRVAVNEDMARHIM | -1.19 |
| HMQMSDTAAIGKIVDEVFAENPAALEDYAKGKTNVVDWLTGQVMKKSRGQANPGIASELVQKRLADF | 0.0922 |
| HMQMSDTGAIEAMVKEALDENPQAIEDFKNGKGKALGFLMGQVMKKSKGQANGGIVNKLIKEELQKRIG | 0.292 |
| HMQMTKSEFLDALRRALNGNMAAASVDDNIRFYDSYFYTEETKGRSEAEILSELGDPRILARTLIDAAD | -0.0328 |

| Sequence | soluble fraction (log2) |
| --- | --- |
| HMQNEIQQLAIDLIARAHKSGASDIHIVDTGTYTRIKFRVLGLLREDSQMEAETGRQMISTIYGILG | -0.0698 |
| HMQNEKLSYFVTETIVTERADLFITKKFPQFSRSQIQKLINSGNITINSNPIKASTEIINKDNIEITIPV | -2.15 |
| HMQNESGLFTMSDLWEAGLMGSENASRKRAAVGAFLGIGFGNGKQFLKRLNHFGVTKEEWESALEQLGE | -1.18 |
| HMQNEVMPYSTFLSEVNSGNVTKVKIDHEQLTGTLKSGKQFTTYILDAATLPSIVAEKGVEVEVVPP | 0.506 |
| HMQNGNYVVQRQDSLWSIAARISGQTHQPIGEVMNHIKALNEHAFVGGNVNRLRTGTNLNLG | -0.224 |
| HMQNKRQEQLLALLAERRDYMTSRQLAEILQVSDRTIRSDVEAINRRSSPPPIESNVRQGYRLNPEA | -0.142 |
| HMQNNIEFTVLEEDAQKRLDVLLSEKTALSRSASASLIEEGGVLVNGRKEPKKYKPVRGEIITAILPE | 0.504 |
| HMQNNTIAFSKFLQEVDNGRVVQVEIQGNNINGILSDGSKFNTYSPNYPALVEKLSEKNVNIVASPV | 0.0941 |
| HMQNPDHLLALAAAAQAAIELGRPDEAEAYYRHLVEVYGVEMASQKPEYLDHSGITNDLRNVAEGFLVG | -1.06 |
| HMQNRIVNTTQGLAADKRGLLVADETGHTTRPGIFASGDVVNGARTVVEAVAHSKIVAESMHQYMQ | 0.654 |
| HMQNSLKAFRVKRGLTTSALSRLTNGEFSTSRISNYETGVRALTIDAAKKLAPHLGASPAQLLNL | -0.694 |
| HMQNSPVFAASDIEDIRVGMTVEHQRFGQGRVMSIEGNGPNKKTTVLFEGIGEKQLLLQYAKLKIV | -0.664 |
| HMQNYLLFEEAKNIVNTLNLTNEKDWSEFIKKDFTYKNQIPIFPNQYYKHKGWVDWNDWLGINK | -1.35 |
| HMQNYTTIIGVIELRLNDISYDNVRKRYHIGRSGITLIMDRYRDSGLSLEDLKQMTPEKVVDLFYPR | -2.55 |
| HMQPAALEAQVIKLVRLHAPIKARQLATILANEFGQHVDRSTVNSLLYQLRAQGKVAQNAAYQWSLT | -2.01 |
| HMQPEKELAPLIGQRVSVRLHDGDGGYRDLLGELESPDSIRKKNGEIAFFDPAKIAALRVVV | 0.0667 |
| HMQPGDRVDALIVGVSGEHVFLDVGGKSEGVMAAAELRNEAGELSAAEGDRVQVYLLSNRNGELIFTA | 0.205 |
| HMQPHLSADEEHLLKILGSDTMHIDALVKRSTLETSNALAALAFLEMKGLVKNIGNMHYIRTYR | -0.552 |
| HMQPIAVHIGTENPMKSLSDLSVVRAQFTSGGRVIGSVAVLGPTRMQYSRIVGMMRFMQQRLDLLLKG | -0.0629 |
| HMQPKKLNMYYDYVRQLLESHPYLSAAQIEDRLKEEFTELPMVHSKTVFNFVENIRLQHGINKHA | -0.219 |
| HMQPLRQGDFVTSEVVKVQDGTAVLRTAQGTLLSASLTGNLGLLPGDRVETVVVEASPGRFVLRVLDIIR | -0.747 |
| HMQPPLTPRELGVLQWAAEGKTTRDTSAILQIHQRTVEMHLKSAREKLDALNTTHAVARALAHGFILPPS | -0.0091 |
| HMQPPVDGNEIMEIFGIKGSPVIGVIKSTIKNAILDGIIAPNDREAALELMFRIADENGLKPVVTQTQ | -0.0513 |
| HMQPRYMLIKTAILDAIERGEMKPGSQVPSENQLAQQHNVSRMTARRALSEMVDDGILMRSQGIGTFVSD | -0.228 |
| HMQPSFFEMIRMVESYIKQHFENVGNEFPEIARAIYYGIEEERNIYGTASREDMEELLDEGIPILPVP | -0.914 |
| HMQPVEHLPTTDPLTTSAASEHERYEKVRWWLEEMQRTYETGDEVRAERIRLSLIEQMYKWEGE | -0.513 |

| Sequence | soluble fraction (log2) |
| --- | --- |
| HMQPYTYNPNFLSDYRAYSLGIPLEAYDKLVQFRASGSFVNSMSDFQKITGVSDSLLAVLHSKFRYPK | -0.826 |
| HMQQELEEMESGNLVRTAIDSLPINQRTAFILSAYEELPIKEIASIMNRSEGAVEQLLQRAKMNLKKKIK | 0.233 |
| HMQQLTDRELEVLRLLAAGLSNNKIGEKLYISATTAKFHVSNIMRKLEVSRRAEAVYAASKRGL | -2.26 |
| HMQQLTQRELTLLRLLANGYNNRQIAEQLQLAESTVKNNLSALFQKIGVRDRTQAVLFAISQGLVP | -1.04 |
| HMQQNDMTELRALAEKIISENDSVINDYKSGQGSALQFLIGQAMKETKGSANPQVISEIFTDLL | -0.354 |
| HMQQPIPGEAYLTRRPGSDHFQIAFTIDGHRVRESSGTSDKVAAAALAQKRYEEVWREIKLGEK | -0.0824 |
| HMQQPVAYSEFVQSVNDRQIREAQIQGERIVATDNNGNRMTVIWPENDTKLLDELVQNGVLTSIQE | 0.116 |
| HMQQVDWGSVFGDFGTMFKDQLQPTIDRLRRMAQSDTFRQSSLEEQQILYSLIEKLERSGTA | -1.89 |
| HMQQVIEGLDSDRDFITVPEAIALFAVGRQTLYHYIRSGKIPSVNLGQRLTRLSKKQLGELFPLR | -1.97 |
| HMQRGRTFSIVLNWKGRLLSTQMFFPQFTRPTKEQVTFEINKVYPGAMVYYYNPIEKDPSQPLV | -2.26 |
| HMQRLSRREIEVLHWIAEGKSDWQIGQILSISAKTVNYHTENLKRKFGVATRMQAVVSAIKQGAFVPGE | -4.11 |
| HMQRVSDKVAAQLRVLVQEQQLKPGDRLPAERALAVQLGVSRTALREAIAQLASQGLLTARVGGGTYVAEP | -1.08 |
| HMQRYVVDENLKLDKKDINHIINVMRLNVNDQIKLINNGTIYDAIITKIEKNNVLYEIIKKEESK | -0.661 |
| HMQSANQLIKLSRKRKGLTQQELADQAGVSLRTVQRIEKGTEEISGFSLKQISQILEIPLEQLIM | -0.652 |
| HMQSLDGPSRAAIVLMAIGPDVAGELIKSFSPAEAQKVSSLLATVRSLDREVMIEVLDSFKNITEH | -0.339 |
| HMQSLPFSFAKRHGVLLKSINHLHGEAVYRIGANPLSLSEVQRYAGVPLKLSSITVEKFDRLLQETYEHD | -1.17 |
| HMQSLSDQVFFYLKERIINNEMVPGSIISIEKLTSEFGISNTPVREAIVRLAGLDLVTIHRNKNITVS | -2.19 |
| HMQSMSADDWSEKARVLMSAGIIVMGQEAKEKILNLKSLVPLIEAASASNVSMIDSRTFDELLMIIP | -2.46 |
| HMQSREISYSEFVTAVEAGDVRNVTLDGEQVRFRRADGSDYVTIRPEDAEVTKLLMANDIPVRAEP | 0.116 |
| HMQSRRTPASLVERVRQLNGQYQDKEIAELLNREGIKTAHGNEFNAKRIEMIRRHNGISKHSAQ | -0.075 |
| HMQSSTAISFNQFQKSWLSNNIKSFQLGEDKMTVRGSLKNGTQYETIVPSERLFQFIGQHPKDGQVQEMY | 0.0453 |
| HMQSTEQVSVTVTIPPGGELRIDSDTFRVLLNGENVLDKQSGDWLMLSRDLLYLDIESAIGNGLSGNLIYT | 0.486 |
| HMQSVEELLDAIGDERLLHILLEADRKTLQIVVLKMMGYAPKEIGSHIGMPEQTVYTKLRRLREKIKKI | -1.65 |
| HMQSYHVGDKVTIKNSASHWATGQSIYNGVKGHTYKIIQTNGHKLLLDQVISWINDGDVYKAGS | -0.497 |
| HMQSYSTIIGVIELRLSGIGYRTTKARYGIGNSTVTLIMNRFKETGFTLDDLKTMEPTKVEALFYPP | -1.36 |

— the domain aggregation screens of Martell et al. (2025)
